Source: PMC7672466, “Biophysical analysis of Pseudomonas-phage PaP3 small terminase suggests a mechanism for sequence-specific DNA-binding by lateral interdigitation”

Experiments:
[1] = target: Pseudomonas phage NV1 small terminase subunit (TerS) (Pseudomonas phage NV1); experiment: crystal structure; TerS from heparin peak 2 at 7.5 mg/ml, vapor diffusion hanging drop; PaP3 at 3.0 Å, NV1 at 3.95 Å
[2] = target: Pseudomonas phage NV1 small terminase subunit (TerS) (Pseudomonas phage NV1); experiment: AUC; sedimentation velocity; TerS from heparin peak 2 (850 mM NaCl); 40 000 rpm, 6 °C; 20 mM Tris-HCl pH 7.5, 150 mM NaCl, 3 mM DTT, 2.5% glycerol; 1.3-2.2 mg/ml
[3] = target: Pseudomonas phage NV1 small terminase subunit (TerS) (Pseudomonas phage NV1); experiment: SEC-SAXS; TerS from heparin peak 2; PaP3 at 1.7 mg/ml, NV1 at 2.0 mg/ml; Superdex 200 10/300 GL; 20 mM Tris-HCl pH 8.0, 150 mM NaCl, 2.5% glycerol, 0.5 mM TCEP; 4 °C
[4] = target: Pseudomonas phage LUZ24 small terminase subunit (TerS) (Pseudomonas phage LUZ24); experiment: AUC; sedimentation velocity; TerS from heparin peak 2 (850 mM NaCl); 40 000 rpm, 6 °C; 20 mM Tris-HCl pH 7.5, 150 mM NaCl, 3 mM DTT, 2.5% glycerol; 1.3-2.2 mg/ml
[5] = target: Pseudomonas phage PaP3 small terminase subunit (TerS) (Pseudomonas phage PaP3); experiment: crystal structure; TerS from heparin peak 2 at 7.5 mg/ml, vapor diffusion hanging drop; PaP3 at 3.0 Å, NV1 at 3.95 Å
[6] = target: Pseudomonas phage PaP3 small terminase subunit (TerS) (Pseudomonas phage PaP3); experiment: AUC; sedimentation velocity; TerS from heparin peak 2 (850 mM NaCl); 40 000 rpm, 6 °C; 20 mM Tris-HCl pH 7.5, 150 mM NaCl, 3 mM DTT, 2.5% glycerol; 1.3-2.2 mg/ml
[7] = target: Pseudomonas phage PaP3 small terminase subunit (TerS) (Pseudomonas phage PaP3); experiment: SEC-SAXS; TerS from heparin peak 2; PaP3 at 1.7 mg/ml, NV1 at 2.0 mg/ml; Superdex 200 10/300 GL; 20 mM Tris-HCl pH 8.0, 150 mM NaCl, 2.5% glycerol, 0.5 mM TCEP; 4 °C
[8] = target: T1, PaP3 TerS WT (small terminase, peak 2) (Pseudomonas phage PaP3, UniProt Q8H9R5 1-152); experiment: EMSA; agarose gel, 0-40 uM TerS; EMSA: incubation 37 C 30 min (binding buffer not stated; proteins in GF buffer 20 mM Tris-HCl pH 7.5, 150 mM NaCl, 5 mM bME, 2.5% glycerol); 1% agarose or 4-16% acrylamide gel, 0.5x TBE, 4 C; settings: protein: recombinant; tags: GST removed by PreScission protease; chain copies: 9; label: 5' Cy3 on both strands; blunt
T1 sequence: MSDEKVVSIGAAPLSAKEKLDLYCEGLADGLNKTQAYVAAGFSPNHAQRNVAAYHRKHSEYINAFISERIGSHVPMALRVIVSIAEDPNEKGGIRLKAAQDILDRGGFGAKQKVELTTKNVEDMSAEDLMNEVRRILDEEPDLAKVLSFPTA

## Pseudomonas phage NV1 small terminase subunit (TerS) (natural protein)
[1]
  stoichiometry N: 9
[2]
  stoichiometry N: 9 mer
[3]
  stoichiometry N: 9

## Pseudomonas phage LUZ24 small terminase subunit (TerS) (natural protein)
[4]
  stoichiometry N: 9 mer

## Pseudomonas phage PaP3 small terminase subunit (TerS) (natural protein)
[5]
  stoichiometry N: 9
[6]
  stoichiometry N: 9 mer
[7]
  stoichiometry N: 9

B1: Cy3-cos (dsDNA)
DNA 1: GCCGGCCCCTTTCCGCGTTA
DNA 2: TAACGCGGAAAGGGGCCGGC
[8]
  binding result: binds
